Measurements from patent US20150033370.

System: TALEN-AAVS1 (goat AAVS1 TALEN pair; left and right monomers not described separately) (synthetic construct)
Assay: cell_activity
Details: cleavage/targeting efficiency in transfected goat fibroblasts; 6 of 8 puromycin-resistant clones correctly targeted with donor; half-sites highlighted only in …

Q: For “TCCGGCTGTCTCCCTACCAGGGACACGGCAGGGCGGTGGTCAGCTCTCCTGGA (double strand) [goat AAVS1 TALEN target]”, which activity is on record?
A: 2%
